Measured values: patent US8242240B2, “Anti-inflammatory compounds and uses thereof” (Yale University, priority 2000, dated 2012)

Target: T1, IKKα-NEMO interaction (Homo sapiens, UniProt Q9Y6K9)
T1 construct: bacterially expressed version of full length NEMO fused at its NH2-terminus to glutathione S-transferase; made in house; host or cells: bacteria (GST-NEMO); in vitro transcription/translation (IKKα)
Assay: GST pull-down of IKKα by GST-NEMO in the presence of NBD peptide
Format: binding
Conditions: peptide 500 and 1000 μM
Experimental: (A) Sequences of the NBD wild type (SEQ ID NO:177) and scrambled control peptides (SEQ ID NO:178). The wild type peptide corresponds to residues 734 to 744 of IKKβ. (B) GST pull-down analysis was performed using GST-NEMO and in vitro transcribed and translated IKKα (upper panel) and IKKβ (middle panel) in the presence or absence of either vehicle (2% DMSO), scrambled or wild type NBD peptide (500 and 1000 μM of each peptide). […] (C) Densitometric analysis of autoradiograph bands obtained following GST pull-down of IKKa and IKKb using GST-NEMO in the presence of a range of concentrations of wild type NBD peptide. […] The data are presented as the pixel density as a percentage of control (no peptide) and represent means±sd (n=11). Analysis was performed using the NIH-Image software.

T1 sequence (Q9Y6K9 whole entry, the tested form may be a part): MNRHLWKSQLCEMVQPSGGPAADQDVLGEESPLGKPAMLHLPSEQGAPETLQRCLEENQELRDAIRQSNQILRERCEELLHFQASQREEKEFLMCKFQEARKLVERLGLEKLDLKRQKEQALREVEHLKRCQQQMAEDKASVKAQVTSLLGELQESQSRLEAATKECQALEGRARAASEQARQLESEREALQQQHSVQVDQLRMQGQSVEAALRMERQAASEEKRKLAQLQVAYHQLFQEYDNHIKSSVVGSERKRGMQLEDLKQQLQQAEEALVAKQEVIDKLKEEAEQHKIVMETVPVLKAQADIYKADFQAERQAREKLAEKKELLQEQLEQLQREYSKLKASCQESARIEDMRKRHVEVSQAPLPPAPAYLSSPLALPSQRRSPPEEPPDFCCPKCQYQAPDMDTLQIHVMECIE

## NBD wild type (SEQ ID NO:177): wild type peptide corresponding to residues 734 to 744 of IKKβ (FTALDWSWLQT; Description of Unknown: Unknown wildtype NBD peptide)
  interaction of IKKα with NEMO (GST pull-down): prevents
